Measured values as given in patent US6541254B1, “Glycosylation variants of iduronate 2-sulfatase” (Women's and Children's Hospital, priority 1991, dated 2003).

Columns and labels:
[1] = Catalytic properties of IDS with radiolabelled disaccharide substrate; format: biochemical; conditions: for Specific Activity / pH Optimum: IdoA2S-anM6S substrate; for Km / Vmax: IdoA2S-anM6S, 50 mM sodium acetate pH 4.5, 500 μg/ml BSA
Description: (§1) Media samples, or cell lysates prepared by six cycles of freeze/thaw in 0.5 M-NaCl/20 mM-Tris/HCl, pH 7.0, were clarified by microcentrifugation (12,000×g, 4° C., 5 min) and were either assayed directly or after dilution in assay buffer. […] IDS was assayed using the radiolabelled disaccharide substrate IdoA2S-anM6S (3). Protein estimations were according to the method of Lowry et al (29).
(§2) The rIDS was purified from the collected medium by a 3-step column procedure. The medium was dialysed overnight at 4° C. against 30 mM-Tris/HCl, pH 7.0/10% v/v glycerol/0.1 mM-DTE/3 mM-NaN3 (buffer A) and was applied to a PBE94 column (8 cm×1.5 cm) equilibrated in buffer A (flow-rate 1.0 ml/min) and then washed with 100 ml of buffer A. Bound proteins were […] with polybuffer 74 that had been diltured 1:18 with water, the pH adjusted to 4.0 with HCl and the solution made 10% v/v in glycerol, 0.1 mM-DTE and 3 mM-NaN3. The column was further eluted with 100 ml 15 mM-ditheriothreitol/3 mM-NaN3 (buffer B). The rIDS eluted in buffer B was applied at a flow-rate of 1.0 ml/min to a Blue A agarose column (6 cm×0.7 cm) also equilibrated in buffer B. The rIDS activity from this step was applied in 1.0 ml volumes to an LKB Ultrachrom GTi f.p.l.c. system with a TSK G3000SW Ultrapac column (30 cm×0.8 cm) equilibrated and eluted in buffer B at a flow-rate of 0.5 ml/min and pressure of 150 kPa. Fractions containing rIDS activity were pooled and analysed under denaturing and non-denaturing condition on SDS-PAGE (10% w/v acrylamide) to estimate apparent subunit size. Gels were stained with either Gradipure Colloidal Electrophoresis Gel Stain (Gradipure, Pyrmont, NSW) or silver stained accordinng to the method of Merril et al (32). Native molecular mass was determined using the f.p.l.c. system as described elsewhere (3) Kinetic (Km, V max, pH optima) and inhibition data were obtained as previously described (3).
Although both the liver and rIDS show a similar Km towards the disaccharide substrate (IdoA2S-anM6S) in the standard assay (50 mM sodium acetate pH 4.5 and 500 μg/ml BSA) they have a substantially different V max. […] Alternatively, this may reflect a difference between enzyme produced in CHO cells and in liver. Both the (CHO) recombinant and (liver) mature form of the enzyme have similar pH optima and specific activities (Table 2).

MPS II cells (SF-1779) = test: Endocytosis of rIDS with or without mannose-6-phosphate; format: cell-based, human; conditions: rIDS at 5×10^4 and 5×10^3 pmol/min per ml, 5 mM mannose-6-phosphate
Description: Cells from SF-1779 were plated in 20 wells (3.83 cm^2) and allowed to reach confluency. Wells 1 to 4 were untreated controls. To each of wells 5 to 12 and 13 to 20 was added 1.0 ml of medium containing rIDS at 5×10^4 pmol/min per ml and 5×10^3 pmol/min per ml respectively. In addition the medium in wells 9 to 12 and 17 to 20 was made 5 mM mannose-6-phosphate. The cells were then incubated for 6 hours after which time they were rinsed with medium and fresh medium added. The cells were incubated overnight and then harvested, washed and lysed as described above. The cell lysates were dialysed against 5 mM-sodium acetate, pH 4.0, for 16 h at 4° C. and then analysed for IDS activity and total protein.

[2] = tested on: MPS II fibroblasts (SF-635 and SF-1779); test: Correction of MPS II fibroblasts by rIDS; format: cell-based, human; conditions: for 35S-cpm/mg Cell Protein / β-Hexosaminidase activity in cell lysate / IDS activity in cell lysate: 5 × 10^4 pmol/min per ml rIDS, 72 hours; for IDS activity in cell lysate: undialysed lysate
Description: Human diploid fibroblasts were established from skin biopsies submitted to this hosptial for diagnosis (28). Cell lines were maintained according to established procedures in BME, 10% v/v FCS and antibiotics unless otherwise stated. The two MPS II skin fibroblast cell lines used in this study (SF-635 and SF-1779) both have low residual IDS activity.
as §1
The fluorogenic substrate 4-methylumbelliferyl-2-acetamido-2-deoxy-β-D-glucopyranoside was used to measure β-hexosaminidase activity (31).
For these experiments IDS was obtained from CHOEFI2S-9 cells cultured in CHO-SFM medium suppplemented with 10 mM-NH4C1 and antibiotics. […] Fibroblasts from a normal individual (SF-3409) and from two MPS II patients (SF-635 and SF-1779) were grown to confluency in 25 cm^2 flasks and radiolabelled with Na2^35SO4 as previously described (27). The labelled cells were then exposed to 5×10^4 pmol/min per ml of rIDS for 72 hours. After harvesting the cells by trypsin treatment and washing by centrifugation/resuspension in PBS, the cell pellet was resuspended in 100 μl of 20 mM-Tris/HCl, pH 7.0/0.5 M-NaCl, and the cell lysates prepared as described above. The cell extracts were analysed for IDS activity, total protein, β-hexosaminidase activity and radioactivity.

[3] = tested on: MPS II skin fibroblasts (SF-635); test: Subcellular fractionation of rIDS-treated cells on Percoll density gradients; format: cell-based, human; conditions: corrected MPS II cells; Percoll gradient of post-nuclear supernatant
Description: Cells from SF-635 were grown to confluency in 75 cm^2 flasks and then exposed to medium supplemented with 5×10^4 pmol/min per ml rIDS. The cells were incubated for 72 h then harvested and fractionated on Percoll density gradients as described in Anson el al (27). The resulting gradient was collected in 1.0 ml fractions by bottom puncture and the fractions analysed for IDS and β-hexosaminidase activity.

[4] = Chromatofocusing on PBE94; format: physicochemical; conditions: majority of rIDS (pool B)
Description: as §2, with “Gels were stained with either Gradipure Colloidal Electrophoresis Gel Stain (Gradipure, Pyrmont, NSW) or silver stained accordinng to the method of Merril et al (32).” left out

| Molecule | Specific Activity [1] | pH Optimum [1] | Km [1] | Vmax [1] | Uptake of IDS activity in presence or absence of mannose-6-phosphate (MPS II cells (SF-1779)) | Clearance of stored 35S-labelled material ([2]; MPS II fibroblasts, rIDS at 5×10^4 pmol/min per ml) | IDS activity level above normal ([2]; SF635, rIDS at 5×10^4 pmol/min per ml) | IDS activity level above normal ([2]; SF1779, rIDS at 5×10^4 pmol/min per ml) | 35S-cpm/mg Cell Protein ([2]; SF-635 cells labelled with Na2 35SO4) | β-Hexosaminidase activity in cell lysate ([2]; SF-635 cells) | IDS activity in cell lysate ([2]; SF-635 cells) | 35S-cpm/mg Cell Protein ([2]; SF-1779 cells labelled with Na2 35SO4) | β-Hexosaminidase activity in cell lysate ([2]; SF-1779 cells) | IDS activity in cell lysate ([2]; SF-1779 cells) | Effect on activity of second lysosomal enzyme β-hexosaminidase ([2]; endocytosis of IDS in MPS II fibroblasts) | Subcellular localisation of endocytosed enzyme [3] | pI [4] |
| --- | --- | --- | --- | --- | --- | --- | --- | --- | --- | --- | --- | --- | --- | --- | --- | --- | --- |
| Liver IDS: Naturally glycosylated mature iduronate 2-sulfatase purified from human liver (protein, UniProt P22304 34-455; P22304 456-550, looked up, natural glycosylation, liver-purified, Naturally glycosylated mature iduronate 2-sulfatase purified from human liver) Iduronate 2-sulfatase 42 kDa …: TDALNVLLIIVDDLRPSLGCYGDKLVRSPNIDQLASHSLLFQNAFAQQAVCAPSRVSFLTGRRPDTTRLYDFNSYWRVHAGNFSTIPQYFKENGYVTMSVGKVFHPGISSNHTDDSPYSWSFPPYHPSSEKYENTKTCRGPDGELHANLLCPVDVLDVPEGTLPDKQSTEQAIQLLEKMKTSASPFFLAVGYHKPHIPFRYPKEFQKLYPLENITLAPDPEVPDGLPPVAYNPWMDIRQREDVQALNISVPYGPIPVDFQRKIRQSYFASVSYLDTQVGRLLSALDDLQLANSTIIAFTSDHGWALGEHGEWAKYSNFDVATHVPLIFYVPGRTASLPEAGEKLFPYLDPFDSASQLMEPGRQSMDLVELVSLFPTLAGLAGLQVPPRCPVPSFHVELCREGKNLLKHFRFRDLEEDPYLPG Iduronate 2-sulfatase 14 kDa …: NPRELIAYSQYPRPSDIPQWNSDKPSLKDIKIMGYSIRTIDYRYTVWVGFNPDEFLANFSDIHAGELYFVDSDPLQDHNMYNDSQGGDLFQLLMP | 11.9 μmol/min per mg | 4.5 | 4 µM | 80 μmol/min per mg |  |  |  |  |  |  |  |  |  |  |  |  |  |
| rIDS: Recombinant human iduronate 2-sulfatase, highly glycosylated, secreted by CHO-K1 clonal line CHOEFI2S-9 (protein) SETQANSTTDALNVLLIIVDDLRPSLGCYGDKLVRSPNIDQLASHSLLFQNAFAQQAVCAPSRVSFLTGRRPDTTRLYDFNSYWRVHAGNFSTIPQYFKENGYVTMSVGKVFHPGISSNHTDDSPYSWSFPPYHPSSEKYENTKTCRGPDGELHANLLCPVDVLDVPEGTLPDKQSTEQAIQLLEKMKTSASPFFLAVGYHKPHIPFRYPKEFQKLYPLENITLAPDPEVPDGLPPVAYNPWMDIRQREDVQALNISVPYGPIPVDFQRKIRQSYFASVSYLDTQVGRLLSALDDLQLANSTIIAFTSDHGWALGEHGEWAKYSNFDVATHVPLIFYVPGRTASLPEAGEKLFPYLDPFDSASQLMEPGRQSMDLVELVSLFPTLAGLAGLQVPPRCPVPSFHVELCREGKNLLKHFRFRDLEEDPYLPGNPRELIAYSQYPRPSDIPQWNSDKPSLKDIKIMGYSIRTIDYRYTVWVGFNPDEFLANFSDIHAGELYFVDSDPLQDHNMYNDSQGGDLFQLLMP | 20.8 μmol/min per mg | 4.5 | 3 µM | 3.35 μmol/min per mg | uptake is mediated via the mannose-6-phosphate receptor | clearance of this stored product to levels comparable to those seen in control fibroblasts | 80 fold | 40 fold | 9018 ± 1988 cpm/mg | 257 ± 14 nmol/min per mg | 1140 ± 50 pmol/min per mg | 5136 ± 502 cpm/mg | 118 ± 11 nmol/min per mg | 562 ± 99 pmol/min per mg | not affected | fractionated with the lysosomal enzyme β-hexosaminidase in the dense fraction of the gradient | < 4.0 |
